In doi:10.1101/2024.12.09.627393:

What was measured:
H3Tetra^ac nucleosome = H3Tetra^ac nucleosome (UniProt P68431); assay: AlphaScreen or HTRF; dCypher: GST-CECR2-BRD titrated against PTM-defined nucleosomes (10 nM); glutathione Acceptor and streptavidin Donor beads; 20 mM Tris pH 7.5, 250 mM NaCl, 0.01% NP-40, 0.01% BSA, 1 mM DTT; room temperature; relative EC50 (EC50^rel)
H4Tetra^ac nucleosome = H4Tetra^ac nucleosome (UniProt P68431); assay: as above

GST-CECR2-BRD (GST tag retained, for dCypher assays), sequence (Q9BXF3 424-538): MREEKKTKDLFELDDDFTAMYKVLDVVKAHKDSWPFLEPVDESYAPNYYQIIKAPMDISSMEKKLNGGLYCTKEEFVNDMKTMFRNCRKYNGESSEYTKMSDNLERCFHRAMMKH

EC50 (H3Tetra^ac nucleosome): 6 nM
EC50 (H4Tetra^ac nucleosome): 9.2 nM
Substance: GST-CECR2-BRD (GST tag retained, for dCypher assays) (from UniProt Q9BXF3-1 424-538) (domain or fragment)
